Source: PMC5161677

What was measured:
[1] = biological target: T1, DnaA (Caulobacter crescentus, UniProt B8GWW5 1-490); assay: EMSA
T1 sequence: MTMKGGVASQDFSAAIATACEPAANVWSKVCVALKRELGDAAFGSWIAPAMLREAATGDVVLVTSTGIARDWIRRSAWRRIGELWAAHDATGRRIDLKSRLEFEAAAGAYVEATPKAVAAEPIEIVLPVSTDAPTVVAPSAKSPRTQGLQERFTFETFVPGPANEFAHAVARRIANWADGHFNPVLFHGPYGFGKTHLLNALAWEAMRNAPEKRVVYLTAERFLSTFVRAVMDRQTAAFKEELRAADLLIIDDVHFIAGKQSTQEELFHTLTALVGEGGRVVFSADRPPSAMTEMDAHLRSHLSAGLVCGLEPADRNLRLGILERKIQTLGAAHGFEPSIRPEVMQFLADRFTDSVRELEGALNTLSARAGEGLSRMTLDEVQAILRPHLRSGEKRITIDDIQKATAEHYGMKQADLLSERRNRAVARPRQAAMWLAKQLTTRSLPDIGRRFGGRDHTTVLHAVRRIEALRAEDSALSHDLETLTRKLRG

[2] = biological target: T2, DnaA R357A (Caulobacter crescentus, UniProt B8GWW5 1-490, R357A); assay: EMSA
T2 sequence: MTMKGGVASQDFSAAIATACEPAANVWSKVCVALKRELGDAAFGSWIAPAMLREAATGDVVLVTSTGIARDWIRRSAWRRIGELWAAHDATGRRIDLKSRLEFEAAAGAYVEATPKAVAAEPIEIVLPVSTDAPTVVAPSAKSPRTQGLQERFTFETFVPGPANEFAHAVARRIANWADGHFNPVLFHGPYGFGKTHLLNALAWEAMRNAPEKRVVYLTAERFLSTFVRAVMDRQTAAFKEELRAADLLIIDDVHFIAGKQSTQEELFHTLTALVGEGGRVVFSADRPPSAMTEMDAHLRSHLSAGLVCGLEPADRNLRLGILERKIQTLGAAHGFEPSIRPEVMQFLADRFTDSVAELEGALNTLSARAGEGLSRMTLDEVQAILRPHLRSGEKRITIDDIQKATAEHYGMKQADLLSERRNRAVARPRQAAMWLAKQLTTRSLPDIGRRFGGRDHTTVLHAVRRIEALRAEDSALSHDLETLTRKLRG

B1: G1 DnaA box dsDNA (dsDNA)
DNA 1: AACGGATGATCCACAGGAGAG
DNA 2: CTCTCCTGTGGATCATCCGTT
binding result [1]: binds
binding result [2]: binds
